Measurements reported in patent US20170356905 (published 2017).

Target: alpha-thrombin (Homo sapiens, UniProt P00734;P00734 P00734:328-363,P00734:364-622)
Experiment: competition; collected complementary strand (SEQ 3) increased with thrombin 0-100 ppm; HEPES/NaCl/KCl/MgCl2/Tween 20 buffer, room temperature

B1: thrombin aptamer TA-3bio (ssDNA)
DNA: GGTTGGTGTGGTTGGTTTTT
modifications: 3'-biotin; five T added at 3' end (included in SEQ)
B1: binds.
